Test results from the nanobody polyreactivity screen of Harvey et al. (2022).

Assay: yeast display, Sf9 membrane polyspecificity reagent, FACS + sequencing; frameworks hold sequencing errors
How it was run: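 Nanobodies came from a synthetic yeast display library in Saccharomyces cerevisiae BJ5465, induced with galactose for 36–48 hours and stained for 1 hour at 4 °C with 10% biotinylated, detergent-solubilized Sf9 membrane reagent. Cells were enriched on streptavidin microbeads and then FACS-sorted, with low and high (top ~1%) gates set on anti-HA fluorescence for expression and streptavidin fluorescence for reagent binding. Each polyreactivity label reflects the gate a clone came from. Genes were amplified by colony PCR, sequenced by MiSeq 2 × 250 and filtered by CDR length.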

Sequence	polyreactivity (PSR sort gate)
QVQLVESGGGLVQAGGSLRLSCAASGSTFQYYAMGWYRQAPGKERELVDAISPSVDTTFYADSVKGRFTISRDNAKNTVYLQMNSLKPEDTAVYFCAKRYVDPLGSGTLGSWGQGTQVTVSS	low polyreactivity
QVQLVESGGGLVQAGGSLRLSCAASGSTFRAYAMGWYRQAPGTEWELVAAISAGGSTNYADSVKGRFTISRDHAKNTVSLQMNCLKRDDTAVYYCAKGWYYVSPYGYRKRVYYWGQGTQVTVSS	high polyreactivity
QVQLVESGGGLVQAGGSLRLSCAASGSTFRDYAMGWSRQAPGKERELVAVISSSGSRTNYADSVKGRFTISRDNAKNTVYLQMNSLKREDTAVYYCAADTTRRAPGYYYWGQGTQVTVSS	high polyreactivity
QVQLVESGGGLVQAGGSLRLSCAASGSTFREYAMGWYIQAPGKERELVAAITSRGGSTYYADSVKGRFTISRDNAKNTVYLQMNSLKPEDTAVYYCAADHGTKAEYYYWGQRTQVTVSS	high polyreactivity
QVQLVESGGGLVQAGGSLRLSCAASGSTFRFYAMGWYRQAPGKERELVAAISSGGSTNYADSVKGRFTISRDNAKNTVYLQMNSLKPEDTAVYYCNAEDYNGRQYYHKMDYWGQGTQVTVSS	high polyreactivity
QVQLVESGGGLVQAGGSLRLSCAASGSTFRGNAMGWSRQAPGKERELVAAISSSGGSTYYADSVKGRFTISRDNAKNTVYLQMNSLKPEDTAVYYCAALYHWTYDYWGQGTQVTVSS	low polyreactivity
QVQLVESGGGLVQAGGSLRLSCAASGSTFRGYAMGWYRKATGKERELVATNSGSDGTTYYADSVKGRFTISRENAKNTVYLQMNSLKPEDTAVYYCAAGETFEMYYWGQGTQVTVSS	low polyreactivity
QVQLVESGGGLVQAGGSLRLSCAASGSTFRGYAMGWYRQAPGKEREFVAAITYTGSSTTYADSVKGRFTISRDNAKNTVYLQMNSLKPEDTAVYYCNKYTRFASSNMYYWGQGTQVTVSS	high polyreactivity
QVQLVESGGGLVQAGGSLRLSCAASGSTFRGYAMGWYRQAPGKERELVAAISWSAGSTYYADSVKGRFTISRDNAKNTVYLQMNRLKPEDTAVYYCAKASVALRYFSYSLGRDYWGQGTQVTVSS	low polyreactivity
QVQLVESGGGLVQAGGSLRLSCAASGSTFRGYAMGWYRQAPGKERELVAAITGSGDRTRYADSVKGRFTISRDNAKNTVYIQMNSLKPEDTAVYYCAKFCPHWAYYSWGQGTQVTVSS	high polyreactivity
QVQLVESGGGLVQAGGSLRLSCAASGSTFRGYAMGWYRQAPGKERELVAAITSSGGSTYYADSVKGRFTISRDNAKNTVYLQMNSLKPEDTAVYYCAAEGGYWYTITYSYWLDYWGQGTQVTVSS	low polyreactivity
QVQLVESGGGLVQAGGSLRLSCAASGSTFRGYTMGWYRQAPGKERELVATISYRSGSTSYADSVKGRFTISRDNAKNTVYLQMNSLKPEDTAVYYCNRVYSKPRYYYWGQGTQVTVSS	high polyreactivity
QVQLVESGGGLVQAGGSLRLSCAASGSTFRHNAMGRYRPAPGKERELVAAITRSGGRTFYADSVKGRFTISRDNAKNTVYLQMNSLKPEDTAVYYCAAERITPYDSSSAYDYWGQGTQVTVSS	low polyreactivity
QVQLVESGGGLVQAGGSLRLSCAASGSTFRIYAMGWYRQAPGKDRELVAGITRRGGSTFYADSVKGRFTISRDNANNTVYLQMNSLKPEDTAVYYCAARFRGGMDYWGQGTQVTVSS	high polyreactivity
QVQLVESGGGLVQAGGSLRLSCAASGSTFRIYAMGWYRQAPGKERELVAAISRSGGSTYYADSVKGRFTISRDNAKNTVYLQMNSLKPEDTAVYYCAAQPSYRYYKSYDYWGQGTQVTVSS	high polyreactivity
QVQLVESGGGLVQAGGSLRLSCAASGSTFRIYAMGWYRQAPGKERELVAAISSGGRTNYADSVKGRFTISRDNAKNTVYLQMNSLKPEDTAVYYCNAVFLPTYHFDYWGQGTQVTVSS	high polyreactivity

Sequence	polyreactivity (PSR sort gate)
QVQLVESGGGLVQAGGSLRLSCAASGSTFRIYVMGWYRQAPGKEREFVAAISRGGGSTYYADSVKGRFTISRDNAKNTVYLQMNSLKPVDTAVYYCAAVTRDYGSRSGLDYWGQGTQVTVSS	high polyreactivity
QVQLVESGGGLVQAGGSLRLSCAASGSTFRKYAMGWYRHAPGKEREFVAAITWSTGTTYYADSVKGRFTISRDHAKNTVYLQMNSLKPEDTAVYDCAADSQPPHELYESIEHESWGQGTQVTVSS	low polyreactivity
QVQLVESGGGLVQAGGSLRLSCAASGSTFRKYAMGWYRQAPGKERELVAAISRGGTSTYYADSVKGRFTISRDNAKNTVYLQMNSLKPEDTAVYYCRYFRYSYGTKYDYWGQGTQVTVSS	high polyreactivity
QVQLVESGGGLVQAGGSLRLSCAASGSTFRLNAMGWYRQAPGKERELVAAISWTGGSTYYADSVKGRFTISRDNAKNTVSLQMNSLKPEDSAVYYCATVSYYDRYDYDYWGQGTQVTVSS	low polyreactivity
QVQLVESGGGLVQAGGSLRLSCAASGSTFRLYAMGWYRQAAGKERELVAAISYSGGSTYYADSVKGRFTISRDTAKNTVYLQMNSLKPEETAVYYCNAVRRHGGYYDYGYWGQGTQVTVSS	high polyreactivity
QVQLVESGGGLVQAGGSLRLSCAASGSTFRLYAMGWYRQAPGKERELVAAISSRGGSTYYADSVKGRFTISRDNAKNTVYLQMNSLKPEDTAVYYCATDYITPSSEGDYWGQGTQVTVTS	high polyreactivity
QVQLVESGGGLVQAGGSLRLSCAASGSTFRNAMGWYRQAPGKERELVAAISYSGGRTYYADSVKGRFTISRDNAKNTVYLQMNSLKPEDTAVYYCASPGVSWSTRSYYYWGQGTQVTVSS	high polyreactivity
QVQLVESGGGLVQAGGSLRLSCAASGSTFRNYAMGWYRQAPGKERELVAAITKRGGTTYYADSVKGRFTISRDNAKNTCYLQMNSLKPEDTAVYYCATGYNSSPFDYWGQGTQVTVSS	high polyreactivity
QVQLVESGGGLVQAGGSLRLSCAASGSTFRNYAMGWYRQAPGKERELVAAITKRGGTTYYADSVKGRFTISRDNAKNTVYLQMNSLKPEDTAVYYCATRQLSKVKDMDYWGQGTQVTVSS	high polyreactivity
QVQLVESGGGLVQAGGSLRLSCAASGSTFRPNAMGWYRQAPGTERELVAAITSGGSTYYADSVKGRFTISRDNAKNTVYLQMNRLKPEDTAVYYFNKDKFWSYPVQVNLDYWGQGTQVTVSS	low polyreactivity
QVQLVESGGGLVQAGGSLRLSCAASGSTFRPYAKGWYRQAPGKERELVAAISNGGNTNYADSVKGRFSISRDNAKNTVYLQMNSLIPEDTAFYYCAKTFRGQPYLRYRYYYWGQGTQVTVSS	high polyreactivity
QVQLVESGGGLVQAGGSLRLSCAASGSTFRPYAMGWYRQAPGKERELVAAITFNGDTYADSVKGRFTISRDNAKNTVYLQMNSLKPEDTAVYYCNAESVSSPPYYDYWGQGTQVTVSS	high polyreactivity
QVQLVESGGGLVQAGGSLRLSCAASGSTFRQYAMGWYRQAPGKERELVAAINWSGSSTYYADSVKGRFTISRDNAKNTVYLQMNSLKPDDTAVYYCAAVVQYWWWKGRGYWGQGTQVTVSS	high polyreactivity
QVQLVESGGGLVQAGGSLRLSCAASGSTFRRNAMGWYRKAPGKERELVAAISSTGGSTRYADSVKGRFTISRDNAKNTVYLQMNSLKPEDTAVYYCAARFSASGSFYYWGQGTQVTVSS	high polyreactivity
QVQLVESGGGLVQAGGSLRLSCAASGSTFRRNAMGWYRQAPGKERELVAAISRGGNTKYADSVKGGFTISRDNAKNTVYLQKNSLKPEDTAVYYCATYYFSSSHLYGYWGQGTQVTVSS	high polyreactivity
QVQLVESGGGLVQAGGSLRLSCAASGSTFRRNAMGWYRQAPGKERELVAAITRRGTSTYYADSVKGRFTISRDNAKNTVYLQMNSLKPEDTAVYYCNAPRPYQDGKFGYWGQGTQVTVSS	high polyreactivity
